The term Kd denotes the concentration at which binding is half-saturated. The low end stands for tighter binding, the high end for weaker binding. For orientation: koff means the first-order rate constant of dissociation. A low value points to a long-lived complex. What is called kon is the rate constant with which the complex forms. Higher therefore signals fast association.

Two molecules from patent US20170210805A1 (published 2017) can be followed below.

Assay [1] addresses water-soluble hFcRn (human) (UniProt P55899). Briefly: SPR (Proteon XPR36), shFcRn immobilized on GLC chip, hIgG1 as analyte, pH 6.0.
The target of assay [2] is T1, human FcRn (co-crystal with HL161BK Fab) (human, UniProt P55899 24-297; P61769 21-119).
T1 construct: also called hFcRn
T1 sequence (P55899 24-297 limits assumed, chain 1 of 2): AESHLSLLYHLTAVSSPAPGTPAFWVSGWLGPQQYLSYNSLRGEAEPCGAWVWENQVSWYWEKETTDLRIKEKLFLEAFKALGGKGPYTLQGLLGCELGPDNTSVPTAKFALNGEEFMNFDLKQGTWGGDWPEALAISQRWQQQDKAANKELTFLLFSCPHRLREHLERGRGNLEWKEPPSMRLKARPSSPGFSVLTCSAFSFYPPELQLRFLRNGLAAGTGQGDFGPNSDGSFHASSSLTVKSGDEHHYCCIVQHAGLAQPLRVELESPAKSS
T1 sequence (P61769 21-119 limits assumed, chain 2 of 2): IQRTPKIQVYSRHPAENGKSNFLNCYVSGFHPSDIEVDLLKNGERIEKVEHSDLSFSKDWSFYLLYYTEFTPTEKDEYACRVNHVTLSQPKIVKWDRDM
Description: X-ray co-crystal structure at 2.4 Å.
Description: There are two copies each of hFcRn and HL161BK Fab per asymmetric unit. […] A data set was collected at ESRF beamline ID30A-1.

Chain of water-soluble hFcRn (human) (P55899 24-297 limits assumed, chain 1 of 2): as the sequence (P55899 24-297 limits assumed, chain 1 of 2) above
Chain of water-soluble hFcRn (human) (b2m, as listed by the source limits assumed, chain 2 of 2): as the sequence (P61769 21-119 limits assumed, chain 2 of 2) above

In assay [1], hIgG1 (antibody) came in with an equilibrium dissociation constant (Kd) of 1.4 nM, an off-rate constant (koff) of 0.00046 s⁻¹ and an association rate constant (kon) of 320000 M⁻¹ s⁻¹.

B1: HL161BK antibody Fab fragment (Fab, V domains shown)
VH: QLLLQESGPGLVKPSETLSLTCTVSGGSLSSSFSYWVWIRQPPGKGLEWIGTIYYSGNTYYNPSLKSRLTISVDTSKNHFSLKLSSVTAADTAVYYCARRAGILTGYLDSWGQGTLVTVSS
VL: SYVLTQSPSVSVAPGQTARITCGGNNIGSKSVHWYQQKPGQAPVLVVYDDSDRPSGIPERFSASNSGNTATLTISRVEAGDEADYYCQVWDSSSDHVVFGGGTKLTVLGQPKAAPSVTL
notes: HL161BK is HL161B with asparagine (N) at position 83 of the heavy-chain variable framework replaced by lysine (K); It was used as a Fab in the crystal; also called HL161BK Fab
Consider B1, for which the binding result in assay [2] is on record as “binds”.
